This data set relates to Escherichia coli TOP10. The experiment in a line: shrunken log2 fold change of peptide-encoding DNA abundance (4.5 h post-induction vs induction); higher = less antimicrobial activity (less host growth inhibition). The conditions noted are these: time post-induction: 4.5 h; library: site-saturation at positions 5, 18, 19, 20.
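Further: peptides expressed intracellularly from a pBAD plasmid library in pooled LB shake-flask culture, induced with 0.3% L-arabinose, DNA abundance read by NGS, three biological replicates, DESeq2 with apeglm shrinkage.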

RRIRQRPPRLPRPRPRPKDSPRP: the “shrunken log2 fold change” value is -0.135.

In the case of RRIRIRPPRLPRPRPRPNHRPRP, the “shrunken log2 fold change” value amounted to 0.0615.

In the case of RRIRPRPPRLPRPRPRPHSNPRP, the “shrunken log2 fold change” value was -0.316.

Consider RRIRARPPRLPRPRPRPKPEPRP, for which the “shrunken log2 fold change” value turned out to be 0.223.

As to RRIRPRPPRLPRPRPRPQLYPRP, the “shrunken log2 fold change” value was -0.0926.

Take RRIRGRPPRLPRPRPRPKTPPRP: the “shrunken log2 fold change” value was 1.73.

With RRIRKRPPRLPRPRPRPNHLPRP, the “shrunken log2 fold change” value was -0.0502.

In the case of RRIRPRPPRLPRPRPRPKHLPRP, the “shrunken log2 fold change” value was -0.355.

On to RRIRNRPPRLPRPRPRPPITPRP, for which the “shrunken log2 fold change” value was found to be 0.187.

RRIRHRPPRLPRPRPRPMFDPRP: the “shrunken log2 fold change” value is 0.108.

For the sequence RRIRKRPPRLPRPRPRPDLPPRP, the “shrunken log2 fold change” value turned out to be 0.222.

Take RRIRARPPRLPRPRPRPKQMPRP: the “shrunken log2 fold change” value worked out at 0.439.

Consider RRIRERPPRLPRPRPRPSMNPRP, for which the “shrunken log2 fold change” value was -0.573.

As to RRIRRRPPRLPRPRPRPDFHPRP, the “shrunken log2 fold change” value is -0.111.

With RRIRHRPPRLPRPRPRPTLKPRP, the “shrunken log2 fold change” value amounted to 1.82.

Regarding RRIRCRPPRLPRPRPRPCQEPRP, the “shrunken log2 fold change” value is -0.108.

Turning to RRIRQRPPRLPRPRPRPREYPRP, the “shrunken log2 fold change” value is -0.0403.

Take RRIRARPPRLPRPRPRPRMDPRP: the “shrunken log2 fold change” value amounted to 0.356.

Take RRIRYRPPRLPRPRPRPVAQPRP: the “shrunken log2 fold change” value is 0.128.

Regarding RRIRIRPPRLPRPRPRPMKIPRP, the “shrunken log2 fold change” value was -0.167.

Turning to RRIRGRPPRLPRPRPRPTCYPRP, the “shrunken log2 fold change” value turned out to be 0.34.

Regarding RRIRDRPPRLPRPRPRPADLPRP, the “shrunken log2 fold change” value was -0.0491.

RRIRMRPPRLPRPRPRPKISPRP: the “shrunken log2 fold change” value came to 0.0938.

Take RRIRNRPPRLPRPRPRPQQYPRP: the “shrunken log2 fold change” value is 0.017.

In the case of RRIRHRPPRLPRPRPRPRVTPRP, the “shrunken log2 fold change” value is 0.0786.

Regarding RRIRSRPPRLPRPRPRPWNAPRP, the “shrunken log2 fold change” value is -0.443.

As to RRIRVRPPRLPRPRPRPDFGPRP, the “shrunken log2 fold change” value is -0.0183.

Turning to RRIRKRPPRLPRPRPRPPCRPRP, the “shrunken log2 fold change” value was found to be 0.264.

In the case of RRIRYRPPRLPRPRPRPYWGPRP, the “shrunken log2 fold change” value is -0.0899.

In the case of RRIRFRPPRLPRPRPRPCYAPRP, the “shrunken log2 fold change” value is -0.618.

For the sequence RRIRRRPPRLPRPRPRPVFAPRP, the “shrunken log2 fold change” value amounted to 0.455.

As to RRIRARPPRLPRPRPRPEKQPRP, the “shrunken log2 fold change” value was -0.148.

RRIRTRPPRLPRPRPRPKHVPRP: the “shrunken log2 fold change” value was -0.658.

In the case of RRIRHRPPRLPRPRPRPQTCPRP, the “shrunken log2 fold change” value is -0.653.

As to RRIRARPPRLPRPRPRPFLTPRP, the “shrunken log2 fold change” value is 0.085.

For RRIRNRPPRLPRPRPRPDFRPRP, the “shrunken log2 fold change” value is -0.0186.

Turning to RRIRKRPPRLPRPRPRPQNPPRP, the “shrunken log2 fold change” value worked out at 0.0671.

Turning to RRIRVRPPRLPRPRPRPHYNPRP, the “shrunken log2 fold change” value is -0.366.

As to RRIRKRPPRLPRPRPRPQHMPRP, the “shrunken log2 fold change” value worked out at 0.0396.

Consider RRIRWRPPRLPRPRPRPEPNPRP, for which the “shrunken log2 fold change” value was 1.23.

Turning to RRIRLRPPRLPRPRPRPPWQPRP, the “shrunken log2 fold change” value amounted to 0.594.

RRIRIRPPRLPRPRPRPISKPRP: the “shrunken log2 fold change” value was -0.161.

As for RRIRWRPPRLPRPRPRPMCGPRP, the “shrunken log2 fold change” value was 0.205.

Turning to RRIRKRPPRLPRPRPRPCACPRP, the “shrunken log2 fold change” value was 0.0293.

RRIRRRPPRLPRPRPRPSTPPRP: the “shrunken log2 fold change” value was 0.225.

Turning to RRIRFRPPRLPRPRPRPWKHPRP, the “shrunken log2 fold change” value was -0.587.

With RRIRSRPPRLPRPRPRPLPDPRP, the “shrunken log2 fold change” value is 0.266.

Consider RRIRYRPPRLPRPRPRPMISPRP, for which the “shrunken log2 fold change” value is -0.126.

For RRIRLRPPRLPRPRPRPHANPRP, the “shrunken log2 fold change” value is -0.293.

With RRIRHRPPRLPRPRPRPEMTPRP, the “shrunken log2 fold change” value worked out at 0.0257.

As for RRIRNRPPRLPRPRPRPVHWPRP, the “shrunken log2 fold change” value came out at 0.384.

As to RRIRHRPPRLPRPRPRPPPTPRP, the “shrunken log2 fold change” value was 0.766.

As for RRIRERPPRLPRPRPRPSVLPRP, the “shrunken log2 fold change” value is -0.312.

As to RRIRNRPPRLPRPRPRPAIQPRP, the “shrunken log2 fold change” value is -0.0231.

Turning to RRIRGRPPRLPRPRPRPAERPRP, the “shrunken log2 fold change” value was determined as 0.388.

RRIRNRPPRLPRPRPRPWSHPRP: the “shrunken log2 fold change” value is -0.17.

In the case of RRIRDRPPRLPRPRPRPFQAPRP, the “shrunken log2 fold change” value was 0.0185.

RRIRMRPPRLPRPRPRPQKHPRP: the “shrunken log2 fold change” value was 0.159.

Turning to RRIRSRPPRLPRPRPRPRESPRP, the “shrunken log2 fold change” value was determined as 0.092.

As to RRIRARPPRLPRPRPRPLECPRP, the “shrunken log2 fold change” value was 0.184.

As to RRIRHRPPRLPRPRPRPQYKPRP, the “shrunken log2 fold change” value was -0.252.

As for RRIRQRPPRLPRPRPRPRVFPRP, the “shrunken log2 fold change” value was -0.0984.

As for RRIRCRPPRLPRPRPRPKLKPRP, the “shrunken log2 fold change” value is -0.16.

As for RRIRIRPPRLPRPRPRPEKMPRP, the “shrunken log2 fold change” value was -0.165.

Take RRIRIRPPRLPRPRPRPQWDPRP: the “shrunken log2 fold change” value turned out to be 0.92.

Take RRIRGRPPRLPRPRPRPKYSPRP: the “shrunken log2 fold change” value was -0.156.

Regarding RRIRCRPPRLPRPRPRPWWFPRP, the “shrunken log2 fold change” value amounted to 0.0459.

Regarding RRIRWRPPRLPRPRPRPCYGPRP, the “shrunken log2 fold change” value stood at 0.22.

With RRIRRRPPRLPRPRPRPVMLPRP, the “shrunken log2 fold change” value is -0.0342.

As to RRIRTRPPRLPRPRPRPGYMPRP, the “shrunken log2 fold change” value is -0.297.

Take RRIRYRPPRLPRPRPRPYAVPRP: the “shrunken log2 fold change” value was -0.85.

RRIRMRPPRLPRPRPRPWLPPRP: the “shrunken log2 fold change” value is -0.0332.

Take RRIRCRPPRLPRPRPRPEQDPRP: the “shrunken log2 fold change” value was -0.0796.

Take RRIRYRPPRLPRPRPRPWTTPRP: the “shrunken log2 fold change” value was -0.000803.

Regarding RRIRYRPPRLPRPRPRPFGRPRP, the “shrunken log2 fold change” value was -0.0018.

Consider RRIRGRPPRLPRPRPRPLAMPRP, for which the “shrunken log2 fold change” value came to 0.94.

As to RRIRKRPPRLPRPRPRPVKAPRP, the “shrunken log2 fold change” value was -0.0242.

Take RRIRVRPPRLPRPRPRPLFLPRP: the “shrunken log2 fold change” value was -0.417.

As for RRIRYRPPRLPRPRPRPMTRPRP, the “shrunken log2 fold change” value is -0.139.

RRIRPRPPRLPRPRPRPNSYPRP: the “shrunken log2 fold change” value is -0.464.

In the case of RRIRERPPRLPRPRPRPGGHPRP, the “shrunken log2 fold change” value was 0.0363.

In the case of RRIRLRPPRLPRPRPRPNKLPRP, the “shrunken log2 fold change” value was -0.307.

On to RRIRLRPPRLPRPRPRPWVVPRP, for which the “shrunken log2 fold change” value was 0.0937.

As to RRIRSRPPRLPRPRPRPLYLPRP, the “shrunken log2 fold change” value was -0.212.

Turning to RRIRRRPPRLPRPRPRPTVTPRP, the “shrunken log2 fold change” value stood at 0.144.

With RRIRNRPPRLPRPRPRPAFCPRP, the “shrunken log2 fold change” value is 0.0699.

For RRIRKRPPRLPRPRPRPNNQPRP, the “shrunken log2 fold change” value is -0.219.

In the case of RRIRYRPPRLPRPRPRPRMGPRP, the “shrunken log2 fold change” value was -0.0782.

In the case of RRIRQRPPRLPRPRPRPKDEPRP, the “shrunken log2 fold change” value is 0.0571.

In the case of RRIRIRPPRLPRPRPRPDEYPRP, the “shrunken log2 fold change” value came out at 0.0287.

On to RRIRQRPPRLPRPRPRPSPLPRP, for which the “shrunken log2 fold change” value was determined as 0.0509.

Regarding RRIRLRPPRLPRPRPRPCRLPRP, the “shrunken log2 fold change” value was -0.286.

For RRIRHRPPRLPRPRPRPTRHPRP, the “shrunken log2 fold change” value amounted to 0.36.

In the case of RRIRMRPPRLPRPRPRPVADPRP, the “shrunken log2 fold change” value came to 3.

As for RRIRSRPPRLPRPRPRPGHLPRP, the “shrunken log2 fold change” value is -0.236.

For the sequence RRIRMRPPRLPRPRPRPEHDPRP, the “shrunken log2 fold change” value was determined as 1.62.

In the case of RRIRKRPPRLPRPRPRPDCLPRP, the “shrunken log2 fold change” value was -0.116.

Regarding RRIRCRPPRLPRPRPRPFAYPRP, the “shrunken log2 fold change” value was 0.00718.

For the sequence RRIRQRPPRLPRPRPRPREVPRP, the “shrunken log2 fold change” value turned out to be 4.11.

Regarding RRIRRRPPRLPRPRPRPQYRPRP, the “shrunken log2 fold change” value is -0.0575.

With RRIRPRPPRLPRPRPRPNFLPRP, the “shrunken log2 fold change” value worked out at 0.0421.

Turning to RRIRQRPPRLPRPRPRPVTVPRP, the “shrunken log2 fold change” value amounted to 0.153.

With RRIRTRPPRLPRPRPRPSQWPRP, the “shrunken log2 fold change” value was -0.168.

With RRIRARPPRLPRPRPRPFIAPRP, the “shrunken log2 fold change” value was found to be 0.0626.

RRIRDRPPRLPRPRPRPYFKPRP: the “shrunken log2 fold change” value was -0.381.

With RRIRKRPPRLPRPRPRPHCFPRP, the “shrunken log2 fold change” value turned out to be 0.0684.

On to RRIRPRPPRLPRPRPRPHEQPRP, for which the “shrunken log2 fold change” value worked out at 0.0602.

For the sequence RRIRWRPPRLPRPRPRPYLNPRP, the “shrunken log2 fold change” value is -0.777.

RRIRSRPPRLPRPRPRPGFRPRP: the “shrunken log2 fold change” value turned out to be 0.165.

On to RRIRMRPPRLPRPRPRPFHDPRP, for which the “shrunken log2 fold change” value was -0.14.

With RRIRGRPPRLPRPRPRPHIRPRP, the “shrunken log2 fold change” value is 0.0682.

In the case of RRIRTRPPRLPRPRPRPAKRPRP, the “shrunken log2 fold change” value is 0.0872.

With RRIRIRPPRLPRPRPRPHMWPRP, the “shrunken log2 fold change” value was -0.321.

Consider RRIRERPPRLPRPRPRPKFPPRP, for which the “shrunken log2 fold change” value was determined as 0.0509.

RRIRYRPPRLPRPRPRPMPYPRP: the “shrunken log2 fold change” value was -0.0899.

Consider RRIRWRPPRLPRPRPRPLRKPRP, for which the “shrunken log2 fold change” value came out at 0.944.

As to RRIRSRPPRLPRPRPRPCHEPRP, the “shrunken log2 fold change” value was 0.0697.

As to RRIRSRPPRLPRPRPRPMEHPRP, the “shrunken log2 fold change” value was -0.122.

Regarding RRIRFRPPRLPRPRPRPCVLPRP, the “shrunken log2 fold change” value is -0.401.

In the case of RRIRHRPPRLPRPRPRPMFYPRP, the “shrunken log2 fold change” value is -0.446.

On to RRIRPRPPRLPRPRPRPWDRPRP, for which the “shrunken log2 fold change” value worked out at 0.0969.

Consider RRIRFRPPRLPRPRPRPCHPPRP, for which the “shrunken log2 fold change” value is 1.35.

RRIRFRPPRLPRPRPRPDHFPRP: the “shrunken log2 fold change” value was -0.331.

As to RRIRARPPRLPRPRPRPCIWPRP, the “shrunken log2 fold change” value amounted to 0.118.

With RRIRTRPPRLPRPRPRPVEMPRP, the “shrunken log2 fold change” value is -0.162.
